Test results reported in article PMC12362409.

Assays:
TRAF2 = TRAF2 (UniProt Q12933); assay: anti-Myc co-IP, Flag immunoblot; settings: reference: wild type mMAVS; sites S186,S220
TRAF3 = TRAF3 (UniProt Q13114); assay: anti-Myc co-IP, Flag immunoblot; settings: reference: wild type mMAVS; sites S186,S220

Substance: mouse MAVS (mMAVS) (from UniProt Q8VCF0) S186A/S220A (2SA)
- binding against the reference (TRAF2): weaker
- binding against the reference (TRAF3): weaker
